Laboratory results taken from PMC8924211 (Nature Communications, 2022).
Where “and” joins values, the source holds several entries; their conditions need not be identical. Identical values can stand only once. Blank lines part the entries; values can stand above or below the molecule they belong to.

How the values were obtained:
[1] = system: GAL2R over GAL1R; conditions: cited from earlier work
From the text: In contrast, L^4P contacts with equivalent ECL2 residues with weaker hydrophobicity (L169^ECL2, A170^ECL2, and L172^ECL2) in GAL2R (Fig. 3e, Supplementary Fig. 4b). The structural observation is coincident with our peptide truncation assay.

[2] = biological target: SNAP-GAL1R (wild type) (human) (UniProt P47211)
[3] = biological target: SNAP-GAL2R (wild type) (human) (UniProt O43603)
[4] = biological target: SNAP-GAL1R (wild type) (human) (UniProt P47211); experiment: AlphaScreen or HTRF; competition: HEK293 cells with SNAP-GAL1R or SNAP-GAL2R labelled with SNAP-Lumi4-Tb; 50 nM galanin-A2 with increasing concentrations of unlabeled ligand, 1 h at room temperature; Ki by the Cheng-Prusoff equation
[5] = biological target: SNAP-GAL2R (wild type) (human) (UniProt O43603); experiment: as above
[6] = biological target: SNAP-GAL2R (wild type) (human) (UniProt O43603); remark: listed apart in the source
[7] = biological target: SNAP-GAL2R (wild type) (human) (UniProt O43603); remark: listed apart in the source
[8] = biological target: T1, N-terminal-SNAP-tagged GAL2R, wild type (human, UniProt O43603 1-387, Lumi4-Tb on the SNAP tag); experiment: AlphaScreen or HTRF; competition binding: HEK293 cells transfected with WT SNAP-tagged receptor and labelled with SNAP-Lumi4-Tb, incubated with 50 nM galanin-A2 and increasing concentrations of the unlabeled ligand, 1 h at room temperature; Ki from IC50 by the Cheng-Prusoff equation; conditions: one partner purified
T1 construct: also called SNAP-GAL2R; GAL2R WT; source: HEK293, transfected, on cells; not shown: SNAP tag, N-terminal, kept
T1 sequence (looked up): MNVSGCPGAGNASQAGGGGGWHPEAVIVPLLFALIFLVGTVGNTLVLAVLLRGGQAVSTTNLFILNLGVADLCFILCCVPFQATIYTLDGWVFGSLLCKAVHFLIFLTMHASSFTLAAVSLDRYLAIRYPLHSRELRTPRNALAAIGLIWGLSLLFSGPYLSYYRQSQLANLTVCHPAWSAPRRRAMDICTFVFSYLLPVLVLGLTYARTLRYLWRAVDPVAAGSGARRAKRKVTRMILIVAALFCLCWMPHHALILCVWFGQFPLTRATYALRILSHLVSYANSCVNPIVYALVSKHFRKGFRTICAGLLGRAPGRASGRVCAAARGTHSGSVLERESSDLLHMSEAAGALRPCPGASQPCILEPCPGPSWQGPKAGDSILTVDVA

[9] = biological target: T2, N-terminal-SNAP-tagged GAL1R, wild type (human, UniProt P47211 1-349, Lumi4-Tb on the SNAP tag); experiment: as above; conditions: one partner purified
T2 construct: also called SNAP-GAL1R; GAL1R WT; source: HEK293, transfected, on cells; not shown: SNAP tag, N-terminal, kept
T2 sequence (looked up): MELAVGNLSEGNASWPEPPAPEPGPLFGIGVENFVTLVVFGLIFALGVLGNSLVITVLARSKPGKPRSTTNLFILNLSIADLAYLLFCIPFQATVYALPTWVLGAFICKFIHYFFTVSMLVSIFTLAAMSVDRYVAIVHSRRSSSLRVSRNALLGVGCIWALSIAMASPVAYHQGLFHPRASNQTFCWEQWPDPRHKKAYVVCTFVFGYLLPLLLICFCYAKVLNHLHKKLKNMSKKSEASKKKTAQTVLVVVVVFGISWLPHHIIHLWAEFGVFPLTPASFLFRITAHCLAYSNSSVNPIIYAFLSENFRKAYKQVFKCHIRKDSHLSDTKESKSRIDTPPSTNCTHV

Molecule: ARM1896: galanin segment 2-11 (WTLNSAGYLL; Galanin; UniProt P22466 34-43, looked up, fragment)
selectivity for GAL1R [1]: low selectivity

calcium assay EC50 (peptide on WT receptor; HEK293/Gα16 cells) [2]: 3.16 µM and 3.44 µM and 3.34 µM
calcium assay EC50 (peptide on WT receptor; HEK293/Gα16 cells) [3]: 0.0501 µM and 0.0123 µM
Ki [4]: > 10 µM
Ki [5]: 0.0801 µM and 0.0426 µM and 0.027 µM
Molecule: G1-truncated galanin (2-16) (peptide)

Molecule: GALP (1–60): galanin-related peptide, galanin homologue; amino acids 9–21 identical to first 13 amino acids of galanin (APAHRGRGGWTLNSAGYLLGPVLHLPQMGDQDGKRETALEILDLWKAIDGLPYSHPPQPS; Galanin-like peptide; UniProt Q9UBC7 25-84, looked up)
affinity for GAL2R versus GAL1R [1]: higher affinity for GAL2R over GAL1R

calcium assay EC50 (peptide on WT receptor; HEK293/Gα16 cells) [2]: 0.324 µM and 0.329 µM and 0.268 µM
calcium assay EC50 (peptide on WT receptor; HEK293/Gα16 cells) [3]: 0.0128 µM and 0.0146 µM and 0.0689 µM
Ki [4]: 0.343 µM and 0.409 µM and 0.314 µM
Ki [5]: 0.0414 µM and 0.0111 µM and 0.0178 µM
Molecule: galanin (1-13) (peptide)

calcium assay EC50 (peptide on WT receptor; HEK293/Gα16 cells) [3]: 0.0235 µM and 0.0125 µM and 0.0126 µM
Ki [5]: 0.0201 µM and 0.0226 µM and 0.0156 µM
Molecule: galanin (1-16) (peptide)

calcium assay EC50 (peptide on WT receptor; HEK293/Gα16 cells) [2]: > 10 µM
calcium assay EC50 (peptide on WT receptor; HEK293/Gα16 cells) [3]: > 10 µM
Ki [4]: 2.88 µM and 2.85 µM and 1.69 µM
Ki [5]: > 100 µM
Molecule: galanin (1-16, Y9A) (peptide)

Molecule: galanin (full length, unlabeled) (peptide)
calcium assay EC50 (peptide on WT receptor; HEK293/Gα16 cells) [3]: 0.00827 µM and 0.0116 µM
calcium assay EC50 (galanin; HEK293/Gα16 cells) [6]: 0.0353 µM and 0.0272 µM and 0.0649 µM

Molecule: spexin (mature, 14 amino acids) (peptide)
calcium assay EC50 (spexin) [7]: 0.327 µM and 0.177 µM and 0.0814 µM

Molecule: GWTLNSAGALLGPHAV (numbers count on: the mature protein) [Gal (1-16, Y9A)]
Ki [8]: > 100 µM
Ki [9]: 2.48 µM

Molecule: WTLNSAGYLLGPHAV (numbers count on: the mature protein) [Gal (2-16)]
Ki [8]: 0.0499 µM
Ki [9]: > 10 µM

Molecule: GWTLNSAGYLLGP (numbers count on: the mature protein) [Gal (1-13)]
Ki [8]: 0.0235 µM
Ki [9]: 0.356 µM
